Reference: EP3741773A1

Biological target: meditope-enabled trastuzumab Fab fragment
Assay: SPR

Chain of meditope-enabled trastuzumab Fab fragment (chain, as listed by the source, chain 1 of 2): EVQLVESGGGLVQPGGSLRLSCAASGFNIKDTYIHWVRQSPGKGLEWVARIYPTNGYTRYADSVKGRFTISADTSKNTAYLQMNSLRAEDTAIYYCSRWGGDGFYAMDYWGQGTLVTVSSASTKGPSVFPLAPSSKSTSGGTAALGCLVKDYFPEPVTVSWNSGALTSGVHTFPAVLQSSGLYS
Chain of meditope-enabled trastuzumab Fab fragment (chain, as listed by the source, chain 2 of 2): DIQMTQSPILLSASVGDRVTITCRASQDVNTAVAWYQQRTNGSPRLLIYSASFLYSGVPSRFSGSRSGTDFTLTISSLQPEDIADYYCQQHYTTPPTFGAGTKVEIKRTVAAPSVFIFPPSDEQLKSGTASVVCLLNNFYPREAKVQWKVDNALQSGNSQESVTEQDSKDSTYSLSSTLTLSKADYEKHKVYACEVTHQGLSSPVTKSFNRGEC

Kd: 1000 nM
Binder: CQFDLSTRRLKC (modifications not checked) [cQFD meditope]
